Data on one protein can be found in patent US20110311508A1 (NORTHWESTERN UNIVERSITY, published 2011).

This data set concerns the molecule itself. The data set is described as follows: self-association (trimerization); EGS crosslinking of K562 cell extracts, SDS-PAGE, western blot. From the text:
FIG. 9: The HSF1 K80Q mutant is not defective in trimerization ability. A prerequisite of stable HSF binding to DNA is the formation of trimeric HSF complexes. Therefore, it is conceivable that mutations of K80 disrupted proper HSF1 folding or the stress-induced formation of HSF trimers. To explore this possibility, e a cross-linking assay was used to determine the formation of higher-order complexes upon heat shock. K562 cells were transfected with WT Myc-HSF1, Myc-HSF1 K80Q or Myc-HSF1 M391K, L395P, a previously characterized HSF1 mutant that is constitutively trimeric (14). Cells were treated with or without heat shock (HS, 42° C., 20 minutes) followed by treatment with the EGS crosslinking agent. Protein extracts were separated by SDS-PAGE and western blot analysis was performed with the indicated antibodies. The arrow indicates monomeric HSF1 and the arrowhead marks trimeric HSF1.

B1: Myc-HSF1 K80Q (other)
chain: MDLPVGPGAAGPSNVPAFLTKLWTLVSDPDTDALICWSPSGNSFHVFDQGQFAKEVLPKYFKHNNMASFVRQLNMYGFRQVVHIEQGGLVKPERDDTEFQHPCFLRGQEQLLENIKRKVTSVSTLKSEDIKIRQDSVTKLLTDVQLMKGKQECMDSKLLAMKHENEALWREVASLRQKHAQQQKVVNKLIQFLISLVQSNRILGVKRKIPLMLNDSGSAHSMPKYSRQFSLEHVHGSGPYSAPSPAYSSSSLYAPDAVASSGPIISDITELAPASPMASPGGSIDERPLSSSPLVRVKEEPPSPPQSPRVEEASPGRPSSVDTLLSPTALIDSILRESEPAPASVTALTDARGHTDTEGRPPSPPPTSTPEKCLSVACLDKNELSDHLDAMDSNLDNLQTMLSSHGFSVDTSALLDLFSPSVTVPDMSLPDLDSSLASIQELLSPQEPPRPPEAENSSPDSGKQLVHYTAQPLFLLDPGSVDTGSNDLPVLFELGEGSYFSEGDGFAEDPTISLLTGSEPPKAKDPTVS
notes: also called K80Q mutant; K80Q HSF1; not shown: Myc tag
Take B1: the binding result is on record as “binds”.
